Test results: article PMC4567348, “Functional Characterization of Hevea brasiliensis CRT/DRE Binding Factor 1 Gene Revealed Regulation Potential in the CBF Pathway of Tropical Perennial Tree”

B1: COR15b (dsDNA)
DNA 1: CTGATGGCCGACCTCTTTTTT
DNA 2: AAAAAAGAGGTCGGCCATCAG
B2: RD29a (dsDNA)
DNA 1: ATATACTACCGACATGAGTTCT
DNA 2: AGAACTCATGTCGGTAGTATAT
B3: COR15a (dsDNA)
DNA 1: TTTCATGGCCGACCTGCTTTTTT
DNA 2: AAAAAAGCAGGTCGGCCATGAAA
B4: RD29b (dsDNA)
DNA 1: CTACCGACATGAGTTCCAAAAAA
DNA 2: TTTTTTGGAACTCATGTCGGTAG

Tests used:
GST-HbCBF1 [1] = target: T1, GST-HbCBF1 (Hevea brasiliensis, UniProt Q4KP31 1-231); test: competition EMSA; 125-fold molar excess cold competitor vs COR15a probe; 10 mM Tris-HCl pH 7.5, 100 mM KCl, 10% glycerol, 1 mM DTT, 0.1% NP-40, 1 mM spermidine, 0.5 ug fish sperm DNA, 4 ug protein, 1 ng probe, 25 C; conditions: protein: recombinant; tags: N-terminal GST (pGEX-6p-1); blunt
GST-HbCBF1 [2] = target: T1, GST-HbCBF1; test: EMSA; 10 mM Tris-HCl pH 7.5, 100 mM KCl, 10% glycerol, 1 mM DTT, 0.1% NP-40, 1 mM spermidine, 0.5 ug fish sperm DNA, 4 ug protein, 1 ng probe, 25 C; conditions: protein: recombinant; tags: N-terminal GST (pGEX-6p-1); label: 5'-digoxigenin (hot probe); blunt

T1 sequence (Q4KP31 entry or part of it): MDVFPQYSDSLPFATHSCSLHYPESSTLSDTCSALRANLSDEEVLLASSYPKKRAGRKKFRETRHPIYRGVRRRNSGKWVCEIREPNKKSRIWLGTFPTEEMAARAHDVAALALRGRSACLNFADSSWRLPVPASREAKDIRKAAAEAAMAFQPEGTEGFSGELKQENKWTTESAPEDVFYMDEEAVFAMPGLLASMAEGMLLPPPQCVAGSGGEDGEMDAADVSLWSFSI

Binder	binding result (GST-HbCBF1 [1])	binding result (GST-HbCBF1 [2])
B1	binds	
B2	binds	
B3		binds
B4	binds	
